Test: label from the status in PepcDB records
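Further: failed if final PepcDB status was selected cloned or expressed and not failed if soluble or beyond.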

| Sequence | protein production |
| --- | --- |
| MEKIRQPTHAGSWYTDNPTKLSSDLEEWLNATGLTKSPDVRGVIAPHAGYSYSGRAAAYAFANIDPTNISRIFLLGPSHHFYTPKCALSTATVYKTPIGNLPVDVEMIKEIRAMGKFGMMDLRVDEAEHSMEMHLPYLAKVFEGNNVKVVPILVGAVSPENEAMYGELLAKYVDDPKNFFSVSSDFCHWGSRFNYMHYDNTHGAIHKSIEALDKKGMDIIETGDPDAFKKYLLEFENTICGRHPISIFLHMLKHSSSKIKINFLRYEQSSQCQTMRDSSVSYASAAAKLET | failed |
| MKEKEYLFSLDMKVRDYECDLQGVVNNSNYQRYMEHTRHEFWESLGDNFGQMHEKGLDAFVYKVTITFKQSLRSGDRFRSCLTCHKKGPKLIFMQDIIREDGVMAARGEVEVVAVQDGVLTRGEYFDVLMKDILSKTTKLEHHHHHH | not failed |
| MAQATSPIELALTTGRGHQAEVRLAKPDGSYLPVIASCNPLNRSDGGIVLTLNDISELRSAERAVSDRAEELATLNRELKETSQATTRLVKLGELLQACVTFHEAFSVVGSAMPDFFGGLSGTVHLTSASRNLVEEMAHWGAVRSSVGQFAPEDCWALRRGQEHVAGPGMLTPRCNHITENGGRGYVCMPLAAQGETLGIVHLCEPDAADRPDWLTERQQILRGVVDTLALALANLRLRETLRQQSIRDPNTGLYNRRYLEETSSRELRRMERSGQPLAMIMLDVDHFKQFNDTFGHEAGDLVLKQVAATLLDHARESDVVSRYGGEEFALMMPGTSLADAAERAEALRKAIKQLHLTHRGRTLGTITASFGVSAFPELGASWVEIVNAADRSLYQAKADGRDRVVAGLGRADPQWDLSTASQSVA | failed |
| MYDCSHGAGSSQSPAAEPGPTPRRRHTIHRLAHNDPVNDLDFLLTPEGRALLDEVRDTDPVRELAVATRLRRTHPAELVSAALGQARLRQRAVAKFGAEDAGRMFFTPNGVEQSTRASVAAYRAGRFAALGVASVADLCCGIGGDAIALARAGIRVLAVDRDPVTAAAARANADALGLAGLIEVREADVTEVDTEAYDAVFVDPARRGGRGRIFDPEAYSPPLSWAVRAARTASRAAALKVAPGIPHEAVPEDAEAEWISDGGDVKEAVLWFGAGAAPGAVRATLLPGPRTLPGTGLPDPEVRTPGRYLYEPDGAVIRAHLVAEVAAQVGGGLLDATIAYVTADELLPTPYATAYEITDRMPFNVKKLKALLRERGVGTLTVKKRGSAVEPEELRRKVKPQGPNSATVFLTRVAGAPTMLVGHPAR | failed |
| MHEIYIYLGIMFMPTYKHSHTPSHDIEDDEDEGTEHLVDELRTNAGAFEEEALVEKLLENLDLDEVEEDEHDAANASFFDSLHFSSIFVLQKREGENESF | failed |
| MDYPNQTSSALFHSSEPLGLNLVDYLRVLLSQYWLIIGIAIGATSLTFGVSLLLPQKFRATATLQIERDVPKVMNVDNLIPVESPLDRDFYQTQYQLLQSRSLARAVIRKMNLGREPMFKPLVDKVLSKVQSLPVNTRNTAIESALIEMMLNSLKIEPILNSRLVYVHFDSHDPTLSAKVANAYAKMFIENNQQRRSNAFSFAMKYLAGRLEQLRIKVDKSERNVVAYSTDEKIVSVGDEKPSLSAQNLSDLNALLASAQNERIRAEASWRQASIGDGLSIPQVLSNLLVQSLRTDQANMVNEYQQKLSMFKPEYPEMQRLKARIKENTKQINAEVFNIRQSLKAQYEAALRQENLLNDRIAVLEKDELDLKTRLIRYNLLEREAETDRQLYDALLQRYKEISVLGDVGSNNVTVVDAADIPSRPISPNLLMNTILGGIFGVFLGLTVAMVRYSMHGAKRINVMSVE | failed |
| MEIQEMAKRFSPEFKQQAIDYALSNSHEPIATIAQKLGVGYSTLDKWIREANPVGSSKRQLSPEQQRILELEKEVKQLREANDILKKAHVYFLTDHAKKSTR | failed |
| MKIIRNYLYNASYQVLILLTPLITVPYVARVLGPTGVGVYSYTNSIITYFVLIGTLGITVYGNQQIAFHRDDIIERSRTFWEIELLQAVNVGITFLGFGIFLILDHRYQLFMVFQSCQLLAGAFDVSWFFMGIEDFKKTVFRNTLVKIATLGAIFIFVRTQSDLGLYILILALSQLVGNFTLWPYLKTRLVRIKFKDLKIWHHYVPALMLFVPQAANLVYQQVNKTMLGNLDTVNSVAYFDYADKLIKTVLAVVTATGIVMLPHMANLHAKGKNETIKRYLYKSFEFVSMIALPLGFGIAGIATTLAPIYFGQDFSISGKLLIIEAPVILLIGWSNVIGQQYMMPTEQISKYTKSVIIGAIVNVILNVPLIMYLGAVGAPIATVAAELSVTLYQLFVVRKQIQINLLFSDFWKYLFSSTVMFIVVYGLNVSMPMSIINLIVQIVEGMIIYLGMLLVLQPKLVVEGKSLLLGKLHK | failed |
| MTSAFNAYTALALAIVSEVIASAFLQQSAQFTRPWPTLAMVLFYVASFYALSVAIRVIPLSIAYAIWGGVGIILTATVSFVLFRQMLDAAAFVGIGLIVSGVVIINLFSETTVH | failed |
| MGVTLEGQRKESIWVLMRRQRARRALVKKIMIRPRKSVEASRRPCRAIHRRVKTLKELVPNTKTSEGLDGLFRQTADYILALEMKVKVMQTMVQVLTETNCV | failed |
| MTAQIRLAEPADLNDDTLRARAVAAARGDQRFDVLITGGTLVDVVTGELRPADIGIVGALIASVHEPASRRDAAQVIDAGGAYVSPGLIDTHMHIESSMITPAAYAAAVVARGVTTIVWDPHEFGNVHGVDGVRWAAKAIENLPLRAILLAPSCVPSAPGLERGGADFDAAILADLLSWPEIGGIAEIMNMRGVIERDPRMSGIVQAGLAAEKLVCGHARGLKNADLNAFMAAGVSSDHELVSGEDLMAKLRAGLTIELRGSHDHLLPEFVAALNTLGHLPQTVTLCTDDVFPDDLLQGGGLDDVVRRLVRYGLKPEWALRAATLNAAQRLGRSDLGLIAAGRRADIVVFEDLNGFSARHVLASGRAVAEGGRMLVDIPTCDTTVLKGSMKLPLRMANDFLVKSQGAKVRLATIDRPRFTQWGETEADVKDGFVVPPEGATMISVTHRHGMAEPTTKTGFLTGWGRWNGAFATTVSHDSHNLTVFGGNAGDMALAANAVIGTGGGMAVASEGKVTAILPLPLSGLVSDAPLEEVARAFEDLREAVGKVVEWQPPYLVFKACFGATLACNIGPHQTDMGIADVLTGKVMESPVIEVLG | failed |
| MGKKIITISREYGSGGRQVGLTVAKKLGMEFYDKELIDAAAKEIGFPTEMIADREQRLTNSLLYNFAMGTLYGIAYPREPKVSELPLTEQIYQAQKKAIEEAAKRGSCIFVGRCADYILKSRPDVLRVFIYADRDIRKRRAIEEYGEIEEYIDEFMYQTDKRRRIHYENYTNQKWGSRENYDLMLNSGDLGLDKCVELLCEAVK | not failed |
| SVVAKVKIPEGTILTMDMLTVKVGEPKGYPPEDIFNLVGKKVLVTVEEDDTIMEELVDNHGKKIKS | not failed |
| MERLSPVFATSKSSNMEVEHWMTSLKEVEKVLDSVEPKLTSSGTKWRVVAQHIKDICSDLNQIFNKEDPRYEVVQAGASAAHDFDVRYLDIHKVRTPHEPLEMRHSKGRKHGREIARLLEKIQKYRQEIEEIKKEYKETDKYRERYDHYKVKLDNLEKKNKDQERIERNQQKFKDAEAAYSSVCADLIQKMETVWKKHVSIFAEAASAVWSTQLQYAKALEAAANPIVPYLQQEEQEEEEEEEAASGTQGRVAEKAYHTNEEKVENSFQKNSAIPPSFRTASEQLTEQSKNINNAKNTSETSPAEDIEA | not failed |
| VEGRTVTYGQQNGTARTGYLAAPADVDSVRSARGGDALPGIVVIHEWWGLNDNVRAATRRLAGEGYRALAVDLYGGAVAETPDSAQALMGQAMREPSRLVENVRDGRAYLSSEADAPRTALLGWCFGGGMTYRTLAEEASAFDAAVAYYGTPDPLAGEALQALETPILAHFGTQDQAVPIDAARKFRDRMEDAGTSLAYHEYDAGHAFANPSGESYEPAAAEQAWTRTTDFLQTHL | failed |
| NSESKSTPKRLHVSNIPFRFRDPDLRQMFGQFGKILDVEIIFNERGSKGFGFVTFENSADADRAREKLHGTVVEGRKIEVNNATARVMTN | not failed |
| MVVKMIEKYVEFIGEHELDAIFKIAEKIKDLSILHVNSTKAGGGVAEILNRMLPLMKELGLNVDWKVIKGDNEFFNVTKSFHNSLQNGTGNIPDEYFKIYDKWQEINLSEIPLDYDIMFIHDPQPAGLIKFKKGNSNKWIWRCHIDISNPYPPVWNFLRKYISKYDSMIISVPSFGRDDIEIPQFVIPPSIDPLSIKNRDMSETTILRILYKFGINLEKPLITQVSRFDYAKDPLGVIQAYKLAKRHVDIQLLYVGSPATDDPEGEKVYSEVVKASEGDKDIHLLMLPPYSDLEINVFQTASTVVMQKSIKEGFGLTVSEAMWKRKPVIGGNTGGIPLQVINGITGFLVNSPQGASHYIIYLIRNEEIRRRLGTNAREHIRRNFLITRELRDYLMTIVYVANRGLASLNSHESISNHLEHHHHHH | failed |
| MVSVNLPWELVEEILCRVPPQSLVKFRTVCKQWNSLFDDNKFVNDHFVQSQPQLIFRTESKIYSVAVNFKGPRIEVHELPLAIPGLKSEMPIRLHDYVDCDGLLFCTSYFNGVLIWNPWLRQTRFFPSIHRYPVTYDIGYDNKKQYKMLDYYKCEGDSSIKSIIYEIGLYSKKVKDLESDSTWSIFQSNSVSLNGTLYWAGVDVNNGIFIRSFSFSTEKPRTFCSLPFMYDDDNVLALAVFRKDRLSLLNLCNKTSEIKIWLTKNNINDREVGLEEDVVWINLMTVLIPNFPKFSFYWYNRPDLTYFLDNDDAKRLVICCYDETDQAYIYIVKGDMFKKIKIDQYEVLSDYSRPHFHTYIPSLVRPSRVKEDNKN | failed |
| MECRPLCIDDLELVCRHREAMFREAGRDALTLAAMQDPFRDWLLPRLADGSYFGWVMEEGGAPLAGIGLMVIEWPPHPSHPLQDKRGYILNLYVDPSHRERGIGQALMNRAEAEFAERGIAFAVLHATEMGQPLYARMGWSPTTEMSKPIAG | not failed |
| MTSFDWFFVAAYLILSFGIALYFYQRAGEDTSEFFLSGRAMPWWLAGTSMVATTFAVDTPLLVTEIVAQNGIAGNWLWWNAAIGGMLTVFFFARLWRRSGVMTDVEFVEFRYSGRVAAWLRGLKALFFGLLLNILIIGWVSLAMETVIDRLFPDLTLFGQAAFSVLGREMSAALVVTGGLILLVSVYALLSGLWGVMVTDLFQFVVAMGGTIALAVLVLDMPEIGGVAGLREQLPDETFNLLPTIGGAAEGAATFSLSALAFAAYAGVQWWASWYPGAEPGGGGYIAQRMMSAKDEPNALFATLWYTIAHFCLRPWPWIIVALAALVLYPDLDEPRAGFVLVMKDVLPPGLLGLLFASFLAAFMSTVSTQLNWGVSYLVNDFWGRFVRPDADEAHYVRVSRVLTFGVALLSLVVTLFLDTIAEAWGLLLSASAGLGLVLILRWYWWRVNAWSEMAATLAPIGLTVAALVLNVFGVQVPGLQADFPLNLYSVVGFTTVVWLAATFLTRPTDAETLDAFYRTVHPGGPGWTPVAERHPDVTPDSGLGRLALDWLVGVVLVYSTLFGTGYLILGWTLWGAGCIAVALTAAAYLWRDLQRDEISLIEMKEEKDATEER | failed |
| MYQDRQGVVGGGGGGGSAPHGIILAVVVALVVLVPFFIGDSGEAITDAIAELLSPVGLLLLPIILLLTIQFLSSERGSFVSAIFSTGEPESIHRVSGSPVGVALFLVLILFLLYYRFSIFGGDDGSDD | failed |
| MAQFPTPFGGSLDIWAITVEERAKHDQQFHSLKPISGFITGDQARNFFFQSGLPQPVLAQIWALADMNNDGRMDQVEFSIAMKLIKLKLQGYQLPSALPPVMKQQPVAISSAPPFGMGGIASMPPLTAVAPVPMGSIPVVGMSPTLVSSVPTAAVPPLANGAPPVIQPLPAFAHPAATLPK | failed |

From a protein production outcome set (Wang et al. 2014)
